Experimental data as given in patent US20140087995A1 (published 2014).
Numbered stars: 1 amine (or outer) side, 2 acyl side, 3 side chain; on linkers, the order of the positions; unused ones are H or OH. Bridge positions count the residues as written; N and C are the ends. Side chains are listed from the residue outwards. Ends that are not written are not given here. * marks the point of attachment. C20 diacid = O=C(O)CCCCCCCCCCCCCCCCCCC(=O)*; γGlu = O=C(O)[C@H](CCC(=O)[*:2])N[*:1]; AEEA = NCCOCCOCC(=O)O

T1: human amylin 3(a) receptor (human calcitonin receptor co-expressed with RAMP-3) (human, UniProt P30988 25-474; O60896 24-148, limits assumed)
T1 sequence (looked up) 1: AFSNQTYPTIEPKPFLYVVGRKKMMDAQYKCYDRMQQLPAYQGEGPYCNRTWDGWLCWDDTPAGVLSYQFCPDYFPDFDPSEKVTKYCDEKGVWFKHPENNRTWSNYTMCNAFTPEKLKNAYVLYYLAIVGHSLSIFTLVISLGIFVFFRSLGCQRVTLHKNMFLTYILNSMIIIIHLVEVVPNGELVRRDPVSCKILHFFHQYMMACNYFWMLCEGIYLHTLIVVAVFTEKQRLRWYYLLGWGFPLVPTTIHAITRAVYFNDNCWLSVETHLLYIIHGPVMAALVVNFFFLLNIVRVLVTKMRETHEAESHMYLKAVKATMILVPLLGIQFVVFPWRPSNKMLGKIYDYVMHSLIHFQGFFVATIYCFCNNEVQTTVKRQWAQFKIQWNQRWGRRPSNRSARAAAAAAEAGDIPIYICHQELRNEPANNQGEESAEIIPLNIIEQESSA
T1 sequence (looked up) 2: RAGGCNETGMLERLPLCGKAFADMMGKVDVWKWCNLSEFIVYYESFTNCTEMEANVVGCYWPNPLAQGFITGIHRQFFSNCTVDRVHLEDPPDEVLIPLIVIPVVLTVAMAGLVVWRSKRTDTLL

B1: N^ε1-[2-[2-[2-[[(4S)-4-carboxy-4-(19-carboxynonadecanoylamino)butanoyl]amino]ethoxy]ethoxy]acetyl]-[Lys14,Arg17,Pro21,Pro27,Pro31]-h-amylin (peptide)
peptide: K([AEEA-γGlu-C20 diacid])CNTATCATQRLAKFLRHSSPNFGAIPSSTPVGSNTY-NH2
modifications: disulfide 2-7; N-terminus assumed
SMILES: CC[C@H](C)[C@H](NC(=O)[C@H](C)NC(=O)CNC(=O)[C@H](Cc1ccccc1)NC(=O)[C@H](CC(N)=O)NC(=O)[C@@H]1CCCN1C(=O)[C@H](CO)NC(=O)[C@H](CO)NC(=O)[C@H](Cc1c[nH]cn1)NC(=O)[C@H](CCCNC(=N)N)NC(=O)[C@H](CC(C)C)NC(=O)[C@H](Cc1ccccc1)NC(=O)[C@H](CCCCN)NC(=O)[C@H](C)NC(=O)[C@H](CC(C)C)NC(=O)[C@H](CCCNC(=N)N)NC(=O)[C@H](CCC(N)=O)NC(=O)[C@@H](NC(=O)[C@H](C)NC(=O)[C@@H]1CSSC[C@H](NC(=O)[C@@H](N)CCCCNC(=O)COCCOCCNC(=O)CC[C@H](NC(=O)CCCCCCCCCCCCCCCCCCC(=O)O)C(=O)O)C(=O)N[C@@H](CC(N)=O)C(=O)N[C@@H]([C@@H](C)O)C(=O)N[C@@H](C)C(=O)N[C@@H]([C@@H](C)O)C(=O)N1)[C@@H](C)O)C(=O)N1CCC[C@H]1C(=O)N[C@@H](CO)C(=O)N[C@@H](CO)C(=O)N[C@H](C(=O)N1CCC[C@H]1C(=O)N[C@H](C(=O)NCC(=O)N[C@@H](CO)C(=O)N[C@@H](CC(N)=O)C(=O)N[C@H](C(=O)N[C@@H](Cc1ccc(O)cc1)C(N)=O)[C@@H](C)O)C(C)C)[C@@H](C)O
notes: also called compound 74
B2: N^ε1-[(4S)-4-carboxy-4-(19-carboxynonadecanoylamino)butanoyl]-[Arg14,Arg17,Pro21,Pro27]-h-amylin (peptide)
peptide: K([γGlu-C20 diacid])CNTATCATQRLARFLRHSSPNFGAIPSSTNVGSNTY-NH2
modifications: disulfide 2-7; N-terminus assumed
SMILES: CC[C@H](C)[C@H](NC(=O)[C@H](C)NC(=O)CNC(=O)[C@H](Cc1ccccc1)NC(=O)[C@H](CC(N)=O)NC(=O)[C@@H]1CCCN1C(=O)[C@H](CO)NC(=O)[C@H](CO)NC(=O)[C@H](Cc1c[nH]cn1)NC(=O)[C@H](CCCNC(=N)N)NC(=O)[C@H](CC(C)C)NC(=O)[C@H](Cc1ccccc1)NC(=O)[C@H](CCCNC(=N)N)NC(=O)[C@H](C)NC(=O)[C@H](CC(C)C)NC(=O)[C@H](CCCNC(=N)N)NC(=O)[C@H](CCC(N)=O)NC(=O)[C@@H](NC(=O)[C@H](C)NC(=O)[C@@H]1CSSC[C@H](NC(=O)[C@@H](N)CCCCNC(=O)CC[C@H](NC(=O)CCCCCCCCCCCCCCCCCCC(=O)O)C(=O)O)C(=O)N[C@@H](CC(N)=O)C(=O)N[C@@H]([C@@H](C)O)C(=O)N[C@@H](C)C(=O)N[C@@H]([C@@H](C)O)C(=O)N1)[C@@H](C)O)C(=O)N1CCC[C@H]1C(=O)N[C@@H](CO)C(=O)N[C@@H](CO)C(=O)N[C@H](C(=O)N[C@@H](CC(N)=O)C(=O)N[C@H](C(=O)NCC(=O)N[C@@H](CO)C(=O)N[C@@H](CC(N)=O)C(=O)N[C@H](C(=O)N[C@@H](Cc1ccc(O)cc1)C(N)=O)[C@@H](C)O)C(C)C)[C@@H](C)O
notes: also called compound 83
B3: N^ε1-[2-[2-[2-[[(4S)-4-carboxy-4-(19-carboxynonadecanoylamino)butanoyl]amino]ethoxy]ethoxy]acetyl]-[Thr14,Arg17,Pro21,Pro27,Pro31]-h-amylin (peptide)
peptide: K([AEEA-γGlu-C20 diacid])CNTATCATQRLATFLRHSSPNFGAIPSSTPVGSNTY-NH2
modifications: disulfide 2-7; N-terminus assumed
SMILES: CC[C@H](C)[C@H](NC(=O)[C@H](C)NC(=O)CNC(=O)[C@H](Cc1ccccc1)NC(=O)[C@H](CC(N)=O)NC(=O)[C@@H]1CCCN1C(=O)[C@H](CO)NC(=O)[C@H](CO)NC(=O)[C@H](Cc1c[nH]cn1)NC(=O)[C@H](CCCNC(=N)N)NC(=O)[C@H](CC(C)C)NC(=O)[C@H](Cc1ccccc1)NC(=O)[C@@H](NC(=O)[C@H](C)NC(=O)[C@H](CC(C)C)NC(=O)[C@H](CCCNC(=N)N)NC(=O)[C@H](CCC(N)=O)NC(=O)[C@@H](NC(=O)[C@H](C)NC(=O)[C@@H]1CSSC[C@H](NC(=O)[C@@H](N)CCCCNC(=O)COCCOCCNC(=O)CC[C@H](NC(=O)CCCCCCCCCCCCCCCCCCC(=O)O)C(=O)O)C(=O)N[C@@H](CC(N)=O)C(=O)N[C@@H]([C@@H](C)O)C(=O)N[C@@H](C)C(=O)N[C@@H]([C@@H](C)O)C(=O)N1)[C@@H](C)O)[C@@H](C)O)C(=O)N1CCC[C@H]1C(=O)N[C@@H](CO)C(=O)N[C@@H](CO)C(=O)N[C@H](C(=O)N1CCC[C@H]1C(=O)N[C@H](C(=O)NCC(=O)N[C@@H](CO)C(=O)N[C@@H](CC(N)=O)C(=O)N[C@H](C(=O)N[C@@H](Cc1ccc(O)cc1)C(N)=O)[C@@H](C)O)C(C)C)[C@@H](C)O
notes: also called compound 75
B4: N^ε1-[(4S)-4-carboxy-4-(19-carboxynonadecanoylamino)butanoyl]-[Arg14,Arg17,Pro21,Pro27,Pro31]-h-amylin (peptide)
peptide: K([γGlu-C20 diacid])CNTATCATQRLARFLRHSSPNFGAIPSSTPVGSNTY-NH2
modifications: disulfide 2-7; N-terminus assumed
SMILES: CC[C@H](C)[C@H](NC(=O)[C@H](C)NC(=O)CNC(=O)[C@H](Cc1ccccc1)NC(=O)[C@H](CC(N)=O)NC(=O)[C@@H]1CCCN1C(=O)[C@H](CO)NC(=O)[C@H](CO)NC(=O)[C@H](Cc1c[nH]cn1)NC(=O)[C@H](CCCNC(=N)N)NC(=O)[C@H](CC(C)C)NC(=O)[C@H](Cc1ccccc1)NC(=O)[C@H](CCCNC(=N)N)NC(=O)[C@H](C)NC(=O)[C@H](CC(C)C)NC(=O)[C@H](CCCNC(=N)N)NC(=O)[C@H](CCC(N)=O)NC(=O)[C@@H](NC(=O)[C@H](C)NC(=O)[C@@H]1CSSC[C@H](NC(=O)[C@@H](N)CCCCNC(=O)CC[C@H](NC(=O)CCCCCCCCCCCCCCCCCCC(=O)O)C(=O)O)C(=O)N[C@@H](CC(N)=O)C(=O)N[C@@H]([C@@H](C)O)C(=O)N[C@@H](C)C(=O)N[C@@H]([C@@H](C)O)C(=O)N1)[C@@H](C)O)C(=O)N1CCC[C@H]1C(=O)N[C@@H](CO)C(=O)N[C@@H](CO)C(=O)N[C@H](C(=O)N1CCC[C@H]1C(=O)N[C@H](C(=O)NCC(=O)N[C@@H](CO)C(=O)N[C@@H](CC(N)=O)C(=O)N[C@H](C(=O)N[C@@H](Cc1ccc(O)cc1)C(N)=O)[C@@H](C)O)C(C)C)[C@@H](C)O
notes: also called compound 63
B5: N^ε1-[(4S)-4-carboxy-4-(19-carboxynonadecanoylamino)butanoyl]-[Arg17,Pro21,Pro27,Arg34]-h-amylin (peptide)
peptide: K([γGlu-C20 diacid])CNTATCATQRLANFLRHSSPNFGAIPSSTNVGRNTY-NH2
modifications: disulfide 2-7; N-terminus assumed
SMILES: CC[C@H](C)[C@H](NC(=O)[C@H](C)NC(=O)CNC(=O)[C@H](Cc1ccccc1)NC(=O)[C@H](CC(N)=O)NC(=O)[C@@H]1CCCN1C(=O)[C@H](CO)NC(=O)[C@H](CO)NC(=O)[C@H](Cc1c[nH]cn1)NC(=O)[C@H](CCCNC(=N)N)NC(=O)[C@H](CC(C)C)NC(=O)[C@H](Cc1ccccc1)NC(=O)[C@H](CC(N)=O)NC(=O)[C@H](C)NC(=O)[C@H](CC(C)C)NC(=O)[C@H](CCCNC(=N)N)NC(=O)[C@H](CCC(N)=O)NC(=O)[C@@H](NC(=O)[C@H](C)NC(=O)[C@@H]1CSSC[C@H](NC(=O)[C@@H](N)CCCCNC(=O)CC[C@H](NC(=O)CCCCCCCCCCCCCCCCCCC(=O)O)C(=O)O)C(=O)N[C@@H](CC(N)=O)C(=O)N[C@@H]([C@@H](C)O)C(=O)N[C@@H](C)C(=O)N[C@@H]([C@@H](C)O)C(=O)N1)[C@@H](C)O)C(=O)N1CCC[C@H]1C(=O)N[C@@H](CO)C(=O)N[C@@H](CO)C(=O)N[C@H](C(=O)N[C@@H](CC(N)=O)C(=O)N[C@H](C(=O)NCC(=O)N[C@@H](CCCNC(=N)N)C(=O)N[C@@H](CC(N)=O)C(=O)N[C@H](C(=O)N[C@@H](Cc1ccc(O)cc1)C(N)=O)[C@@H](C)O)C(C)C)[C@@H](C)O
notes: also called compound 79
B6: N^ε1-[(4S)-4-carboxy-4-(19-carboxynonadecanoylamino)butanoyl]-[Arg14,Arg17,Pro21,Pro27,Pro34]-h-amylin (peptide)
peptide: K([γGlu-C20 diacid])CNTATCATQRLARFLRHSSPNFGAIPSSTNVGPNTY-NH2
modifications: disulfide 2-7; N-terminus assumed
SMILES: CC[C@H](C)[C@H](NC(=O)[C@H](C)NC(=O)CNC(=O)[C@H](Cc1ccccc1)NC(=O)[C@H](CC(N)=O)NC(=O)[C@@H]1CCCN1C(=O)[C@H](CO)NC(=O)[C@H](CO)NC(=O)[C@H](Cc1c[nH]cn1)NC(=O)[C@H](CCCNC(=N)N)NC(=O)[C@H](CC(C)C)NC(=O)[C@H](Cc1ccccc1)NC(=O)[C@H](CCCNC(=N)N)NC(=O)[C@H](C)NC(=O)[C@H](CC(C)C)NC(=O)[C@H](CCCNC(=N)N)NC(=O)[C@H](CCC(N)=O)NC(=O)[C@@H](NC(=O)[C@H](C)NC(=O)[C@@H]1CSSC[C@H](NC(=O)[C@@H](N)CCCCNC(=O)CC[C@H](NC(=O)CCCCCCCCCCCCCCCCCCC(=O)O)C(=O)O)C(=O)N[C@@H](CC(N)=O)C(=O)N[C@@H]([C@@H](C)O)C(=O)N[C@@H](C)C(=O)N[C@@H]([C@@H](C)O)C(=O)N1)[C@@H](C)O)C(=O)N1CCC[C@H]1C(=O)N[C@@H](CO)C(=O)N[C@@H](CO)C(=O)N[C@H](C(=O)N[C@@H](CC(N)=O)C(=O)N[C@H](C(=O)NCC(=O)N1CCC[C@H]1C(=O)N[C@@H](CC(N)=O)C(=O)N[C@H](C(=O)N[C@@H](Cc1ccc(O)cc1)C(N)=O)[C@@H](C)O)C(C)C)[C@@H](C)O
notes: also called compound 65

Target: T1, human amylin 3(a) receptor (human …)
Assay: cell-based or functional assay

Binder | Ratio hCT/hAmylin funct. (hCTR EC50 over hAmylin-R EC50) | hAmylin-R funct. EC50 (pM)
B1 | 56.3 | 666 pM
B2 | 41.6 | 405 pM
B3 | 30.6 | 296 pM
B4 | 139 | 37 pM
B5 | 24.5 | 161 pM
B6 | 38.6 | 242 pM
